# Results taken from US20050227296A1, “Method for indentifying integrin antagonists” (The General Hospital Corporation, a Massachusetts …, priority 1988, published 2005).
# Experiments:
# [1] = target: T1, EAiC3b (erythrocytes coated with iC3b) (Homo sapiens, UniProt P01024); assay: Erythrocyte binding assay, EAiC3b on immobilized proteins or peptides
# T1 construct: EAiC3b (erythrocytes coated with iC3b) were generated by treating EAC3b with purified human factors H and I; tissue Sigma Chemical Co. (C5-deficient human serum); host or cells: human serum C3 deposited on IgM-coated erythrocytes
# Description: Erythrocytes (E) coated with rabbit anti-E IgM (EA) or C3b (EAC3b) were prepared as described by Dana et al. (J. Immunol. 73:153, 1984). EAiC3b (erythrocytes coated with iC3b) were generated by treating EAC3b with purified human factors H and I, or alternatively prepared from EA using C5-deficient human serum (Sigma Chemical Co., St. Louis, Mo.). EAiC3b cells were washed and stored in isotonic veronal-buffered saline (VBS^2+), pH 7.4, containing 0.15 mM calcium-1 mM magnesium (MgCl2+CaCl2) and 1 mg/ml Soybean Trypsin Inhibitor (STI; Worthington Biochemical Co., Freehold, N.J.) at 1.5×10^8 cells/ml. EA, EAC3b or EAiC3b were labeled with 5-(and-6)-carboxy fluorescein (Molecular Probes, Eugene, Oreg.) as described by Michishita et al. (Cell 72:857, 1993).
# Immobilization of recombinant proteins and peptides: Purified recombinant A-domain was added to Immulon-2 96-well microtiter plates (Dynatech) overnight. Wells were then washed once with phosphate-buffered-saline, pH 7.4 without metals, and blocked with 1% BSA at room temperature (RT) for one hour, followed by two washings with buffer A (composed of 60% GVBS:VBS^2+ mixed in a 1:3 ratio; Arnaout et al., in Complement Receptor Type 3 at 602-615, Academic Press, FL) containing 1 mM MnCl2 or MgCl2+CaCl2. All the peptides were stocked at 1 mg/ml in water and similarly adsorbed to Immulon-2 96-well plates. Binding of the anti-CD11b mabs to the coated rA-domain was measured by ELISA and read using a plate reader (Molecular Dynamics).
# Erythrocyte binding assays: Fluoresceinated EAiC3b, EAC3b or EA were resuspended to 1.5×10^8/ml in buffer A, and added […] to wells containing immobilized proteins or peptides in a total volume of […]. The plates were then briefly centrifuged to settle the erythrocytes, and allowed to incubate at 37° C. for 15 minutes in a humidified incubator with 5% CO2. For the inhibition studies, E were preincubated with each recombinant protein or pure peptide in the presence of 2% BSA for 5 minutes at RT and added to wells coated with immobilized protein or peptide without washing, unless otherwise indicated. At the end of the binding reactions, wells were washed, examined briefly by light microscopy then solubilized with 1% SDS-0.2 N NaOH. Fluorescence was quantified (excitatory wavelength, 490 nm, emission wavelength, 510 nm) using a SLM 8000 fluorometer (SLM Instruments, Urbana, Ill.). In experiments where the effects of individual divalent cations were measured, Ca^2+ and Mg^2+ were replaced with metal-free buffers or with buffers containing each cation at […], unless otherwise indicated. The effect of temperature was evaluated in the presence of 1 mM MnCl2 at 37° C. and at 4° C.
# [2] = target: T2, biotinylated NIF binding to immobilized r11bA (Homo sapiens, UniProt P11215); assay: Inhibition of biotinylated NIF binding to immobilized r11bA
# T2 construct: recombinant CD11b A domain (rCD11bA) and recombinant CD11a A domain (r11aA) were expressed as GST fusion proteins; GST (N); made in house; host or cells: Escherichia coli
# Description: Immobilization of Recombinant Proteins and Polypeptide: Purified rA-domain preparations (1 μg/well), soluble CD54, human fibrinogen (Sigma Chemical Co., St. Loius, Mo.), gelatin (BioRad-Laboratories) or BSA (Calbiochem-Behring Corp.) (each at 10 μg/well) or selected A-domain-derived peptides (10 μg) were added to Immulon-2 96-well microtiter plates (Dynatech Labs, Chantilly, Va.) overnight. Quantitation of adsorbed wild-type and mutant A-domain and synthetic peptides was done using the mAb 44 in an ELISA, and the BCA kit (from Pierce Chemical Co., Rockford, Ill.), respectively. […]
# Biotinylation of recombinant NIP and Measurement of Binding to Immobilized Peptides: Recombinant NIP was labeled with sulfo-NHS-biotin as described by the manufacturer (Pierce Chemical Co.). […] Wells were then washed, incubated with alkaline phosphatase-coupled avidin, washed again, developed with substrate and quantified colormetrically using a microplate reader. […] In experiments where the effects of divalent cations on biotinylated rNIF binding to immobilized rCD11b A-domain were measured, VBSG^−− buffer (veronal-buffered saline, pH=7.4, containing 0.1% gelatin) containing 1 mM of Ca^2+, Mg^2+, Mn^2+, EDTA, EGTA, EGTA plus 1 mM MgCl2, or 1 mM MnCl2. […]
# T1 sequence (P01024 749-1303 limits assumed): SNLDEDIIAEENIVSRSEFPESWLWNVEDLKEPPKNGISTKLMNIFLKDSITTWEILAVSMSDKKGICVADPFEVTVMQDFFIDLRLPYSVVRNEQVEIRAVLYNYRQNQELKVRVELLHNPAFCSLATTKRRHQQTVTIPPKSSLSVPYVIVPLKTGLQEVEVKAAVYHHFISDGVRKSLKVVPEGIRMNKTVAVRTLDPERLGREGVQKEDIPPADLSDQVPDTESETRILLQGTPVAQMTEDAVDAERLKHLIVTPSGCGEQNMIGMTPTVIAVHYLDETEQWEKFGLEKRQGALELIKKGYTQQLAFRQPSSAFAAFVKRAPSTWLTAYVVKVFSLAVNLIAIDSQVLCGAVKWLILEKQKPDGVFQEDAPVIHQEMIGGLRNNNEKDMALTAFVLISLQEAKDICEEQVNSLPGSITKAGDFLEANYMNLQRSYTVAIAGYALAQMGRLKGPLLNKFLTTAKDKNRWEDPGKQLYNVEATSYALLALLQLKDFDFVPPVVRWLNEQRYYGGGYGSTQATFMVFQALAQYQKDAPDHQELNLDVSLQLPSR
# T1 sequence (P01024 23-667 partner limits assumed): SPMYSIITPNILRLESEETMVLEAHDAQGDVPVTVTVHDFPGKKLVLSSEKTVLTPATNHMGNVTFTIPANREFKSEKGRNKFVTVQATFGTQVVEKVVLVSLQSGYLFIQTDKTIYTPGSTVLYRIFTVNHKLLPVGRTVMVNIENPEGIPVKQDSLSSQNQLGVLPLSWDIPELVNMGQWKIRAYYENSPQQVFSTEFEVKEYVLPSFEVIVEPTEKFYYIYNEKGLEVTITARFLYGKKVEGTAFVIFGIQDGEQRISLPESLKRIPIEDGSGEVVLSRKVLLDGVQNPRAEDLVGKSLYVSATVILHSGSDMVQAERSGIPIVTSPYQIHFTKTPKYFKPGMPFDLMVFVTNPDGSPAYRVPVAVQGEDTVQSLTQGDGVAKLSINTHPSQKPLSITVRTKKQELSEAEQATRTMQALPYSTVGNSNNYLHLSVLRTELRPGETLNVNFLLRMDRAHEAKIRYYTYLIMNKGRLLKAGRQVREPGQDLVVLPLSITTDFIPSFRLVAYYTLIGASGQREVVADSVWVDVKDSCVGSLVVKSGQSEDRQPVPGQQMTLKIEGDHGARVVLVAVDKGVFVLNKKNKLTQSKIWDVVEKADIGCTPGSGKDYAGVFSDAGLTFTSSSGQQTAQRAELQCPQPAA
# T1 sequence (P01024 1321-1663 partner limits assumed): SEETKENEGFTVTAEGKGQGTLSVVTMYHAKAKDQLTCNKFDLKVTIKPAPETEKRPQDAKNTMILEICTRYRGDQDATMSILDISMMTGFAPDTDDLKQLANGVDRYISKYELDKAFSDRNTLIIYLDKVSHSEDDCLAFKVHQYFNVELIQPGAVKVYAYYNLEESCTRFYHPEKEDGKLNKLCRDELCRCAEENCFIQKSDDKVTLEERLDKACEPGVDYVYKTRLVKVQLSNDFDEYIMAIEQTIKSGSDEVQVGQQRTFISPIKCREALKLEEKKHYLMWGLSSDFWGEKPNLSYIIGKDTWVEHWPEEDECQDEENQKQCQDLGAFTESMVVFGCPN
# T2 sequence (P11215 150-328 limits assumed): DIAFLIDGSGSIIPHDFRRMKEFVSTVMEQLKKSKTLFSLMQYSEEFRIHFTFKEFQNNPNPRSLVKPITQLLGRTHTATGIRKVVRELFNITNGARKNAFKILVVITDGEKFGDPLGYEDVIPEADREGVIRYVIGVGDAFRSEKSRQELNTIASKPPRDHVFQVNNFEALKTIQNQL
substance,measurement,setting,value
"r11bA: recombinant human CD11b A domain (Cys128 to Glu321), expressed as GST fusion protein, used as such or after thrombin cleavage",binding of the A domain to iC3b,[1],binds
same,"EAiC3b binding to rA-domain with MnCl2, MgCl2 or MgCl2 plus CaCl2","[1]; 1 mM MnCl2, 1 mM MgCl2 or 1 mM MgCl2 and 0.15 mM CaCl2",supported
same,temperature dependency of EAiC3b binding to rA-domain,"[1]; 37° C. and 4° C., 1 mM MnCl2",temperature-independent
same,direct binding of EAiC3b to immobilized protein or peptide,"[1]; 37° C., divalent cations",bound
same,EAiC3b binding to rA-domain with CaCl2 alone,[1]; CaCl2 alone (0.15-1 mM),ineffective
same,"EAiC3b binding to rA-domain, divalent cations omitted or EDTA included",[1]; no divalent cations or EDTA,No specific binding
same,effect of fluid-phase protein on biotinylated rNIF binding to immobilized r11bA,[2]; dose dependent,abolished
same,IC50,"[2]; fluid-phase protein, read-out: half-maximal inhibition of biotinylated rNIF binding to immobilized r11bA",~1 nM
